Source: the supplement of paper PMC9170038

Assays:
[1] = tested on: MS2 coat protein; assay: apparent KD of MS2 coat protein, switch OFF state (with FMN for OFF switches, without FMN for ON switches); designed switch direction (-1 OFF switch, 1 ON switch): -1; higher = weaker reporter binding; details: FMN input: 0 or 200 uM; Eterna round: R93 (includes R88 designs)
Outline: (§1)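 Titration buffer: 100 mM Tris-HCl pH 7.5, 80 mM KCl, 4 mM MgCl2, without or with constant ligand. Designed RNA switches transcribed on-chip from Illumina sequencing clusters received SNAP-549-labelled MS2 coat protein in twofold steps from 0.7 or 1.5 nM to 3 µM. Apparent KD is the median per design of fits to normalised cluster binding curves.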

[2] = tested on: MS2 coat protein; assay: apparent KD of MS2 coat protein, switch ON state; designed switch direction (-1 OFF switch, 1 ON switch): -1; higher = weaker reporter binding; details: FMN input: 0 or 200 uM; Eterna round: R93 (includes R88 designs)
Outline: as §1

[3] = tested on: MS2 coat protein; assay: apparent KD of MS2 coat protein; designed switch direction (-1 OFF switch, 1 ON switch): 1; higher = weaker reporter binding
Outline: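 The buffer was Tris-HCl pH 7.5 with KCl, MgCl2, BSA, DTT, tRNA and Tween-20. In it, SNAP-549-labelled MS2 coat protein was titrated in doubling steps from 0.7 or 1.5 nM to 3 µM over chip-bound RNA switches transcribed by stalled E. coli RNA polymerase on Illumina chips. Apparent KD is the per-design median over clusters of curve fits to normalised fluorescence.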

[4] = input ligand: microRNA oligo, concentration not stated
[5] = Eterna round: R95, input ligand: FMN 200 uM
[6] = Eterna round: R95, input ligand: microRNA oligo, concentration not stated
[7] = Eterna round: R95, input ligand: none

## GCAUGCGAAGGAUAUACAUGAGGAUCACCCAUGUGAGAGAAAAAAGUGAGAAAGAAAAGUAGAAGGUCGUGUGG [salish99-ex3-94]
[1]
  apparent KD of MS2 coat protein: 70.9 nM
[2]
  apparent KD of MS2 coat protein: 40.7 nM

## GAAGAACAUGAGGAUCACCCAUGUGAGGAUAUACAGAAUGGAAUAAAAUAACAAGAAAGUAGAAGGCACAAGAA [Ex 1 May 39]
[1]
  apparent KD of MS2 coat protein: 38.4 nM
[2]
  apparent KD of MS2 coat protein: 32.1 nM

## AAAAAACAUGAGGAUCACCCAUGUGAGGAUAUCGGUAGUGAGGGUAUAGUGUCAAUAGUGAGAAGGCGCAUAAA [Brourd 613 Mod 13 - Jieux - Exclusion 1]
[1]
  apparent KD of MS2 coat protein: 28 nM
[2]
  apparent KD of MS2 coat protein: 26.3 nM

## UAUAGACAUGAGGAUCACCCAUGUGAGGAUAUCGGUGACUACAGGACAUCACGUACAAUGAGAAGGCACAGAAA [JR_Exc001_Sub017]
[1]
  apparent KD of MS2 coat protein: 44.2 nM
[2]
  apparent KD of MS2 coat protein: 40.3 nM

## UAAAGACAUGAGGAUCACCCAUGUGAGGAUAUAGGUGUAUGCAAAAAAAAGUUAAAAACUAGAAGGCACAGAAA [JR_Exc001_Sub305]
[1]
  apparent KD of MS2 coat protein: 42.5 nM
[2]
  apparent KD of MS2 coat protein: 66 nM

## AUAAGUGCAGGAUAUACAAAAUGCUAGCGAAAGCUAGCAUAACAUGAGGAUCACCCAUGUAGAAGGGCACAAUA [Tetraloop hairpin BlockHead... 61% 1]
[1]
  apparent KD of MS2 coat protein: 18.4 nM
[2]
  apparent KD of MS2 coat protein: 23.5 nM

## AAAACGUGAGGAUAUGCACCAAAAAAGGUAAAACGGGUACGACAUGAGGAUCACCCAUGUAGAAGGCACGAAAA [Frodo Flailing 10 - Jieux - Exclusion 2]
[1]
  apparent KD of MS2 coat protein: 107 nM
[2]
  apparent KD of MS2 coat protein: 46 nM

## UUUAAGUCAGGAUAUUCGGAUAGGAAAACGAAAACCUAUCCGAAGAAGGGACAUGAGGAUCACCCAUGUAAAAA [Starry Exclusion 4.3 (cataway round 1 mod)]
[1]
  apparent KD of MS2 coat protein: 56.3 nM
[2]
  apparent KD of MS2 coat protein: 52.1 nM

## AGCUAUUAAUCAGGAUAUGGUCACAUGAGGAUCACCCAUGUAUCGAUGAUAUGAUGUGGUCAAUACUAGAAGGGAUUGCUAACA [SameState NG2 #64] (Eterna round: R96, puzzle: Same State NG 2)
[3]; input ligand: FMN 200 uM
  apparent KD of MS2 coat protein: 180 nM
[3]; [4]
  apparent KD of MS2 coat protein: 104 nM
[3]; input ligand: none
  apparent KD of MS2 coat protein: 152 nM

## GGAGCCGGCACUGAGGAUAUUCAUAUUAAAACAUGAGGAUCACCCAUGUGGGCCAGAAGGCCUUGGGAGAAGGCAGGUCGGCCCG [Bibimoar - 4] (puzzle: Same State 2)
[3]; [5]
  apparent KD of MS2 coat protein: 20.2 nM
[3]; [6]
  apparent KD of MS2 coat protein: 140 nM
[3]; [7]
  apparent KD of MS2 coat protein: 183 nM

## CCGUUCAAUAAACAUGAGGAUCACCCAUGUUAUAAUAUGGGUGAGGAUAUGCAUCUGAAACAGGUGCAGAAGGCAUAAGAGCGG [JL SSNG3 3.92] (Eterna round: R96, puzzle: Same State NG 3)
[3]; input ligand: FMN 200 uM
  apparent KD of MS2 coat protein: 214 nM
[3]; [4]
  apparent KD of MS2 coat protein: 37.7 nM
[3]; input ligand: none
  apparent KD of MS2 coat protein: 100 nM

## GUGCUCAUGUAAGGAUAUGCAGCCGUUUCGGCUGCAGAAGGUACUAUAAUACAUGAGGAUCACCCAUGUCUCUAUAAUUUGGUG [salish99_SSNG1_r04_903] (Eterna round: R96, puzzle: Same State NG 1)
[3]; [4]
  apparent KD of MS2 coat protein: 76.5 nM

## GCGAGCGUACUUGCAACAUGAGGAUCACCCAUGUUAACUGGACAGGAUAUGGUACCGUUUCGGUACCAGAAGGGUUCCUUCAUG [JL SSNG3 3.60] (Eterna round: R96, puzzle: Same State NG 3)
[3]; input ligand: FMN 200 uM
  apparent KD of MS2 coat protein: 167 nM
[3]; [4]
  apparent KD of MS2 coat protein: 166 nM
[3]; input ligand: none
  apparent KD of MS2 coat protein: 268 nM

## GGAGCCGGCCUAGGAUAUUUCAUUUUAAAACAUGAGGAUCACCCAUGUAGGCCAGAAGGCCUUGGGAAGAAGGAGGUCGGCUCC [Loop Effect - U24,U25,U26] (Eterna round: R96, puzzle: Same State NG 2)
[3]; input ligand: FMN 200 uM
  apparent KD of MS2 coat protein: 17.4 nM
[3]; [4]
  apparent KD of MS2 coat protein: 33.2 nM
[3]; input ligand: none
  apparent KD of MS2 coat protein: 69.3 nM

## AAAAUGGUAUGUUACAUGAGGAUCACCCAUGUACUCUCCUCUGAGGAUAUGGGAAUGUUGAAAAACCAGAAGGCAGACAUCCAA [AK SSNG3-V2-22] (Eterna round: R96, puzzle: Same State NG 3)
[3]; input ligand: FMN 200 uM
  apparent KD of MS2 coat protein: 139 nM
[3]; [4]
  apparent KD of MS2 coat protein: 177 nM
[3]; input ligand: none
  apparent KD of MS2 coat protein: 192 nM

## GGUAUCGACGCAGGAUAUGCUAUCCUUUGGGUAGCAGAAGGGUGAACAUGAGGAUCACCCAUGUGGGUGCCAGGGCGUGAGCCC [JL SSNG1 1.82] (Eterna round: R96, puzzle: Same State NG 1)
[3]; input ligand: FMN 200 uM
  apparent KD of MS2 coat protein: 694 nM
[3]; [4]
  apparent KD of MS2 coat protein: 18.2 nM
[3]; input ligand: none
  apparent KD of MS2 coat protein: 86.8 nM

## AUAAUACAUGAGGAUCACCCAUGUAAUUUAACUUGUAAGAUCAAGGAUAUCAGCUCGAUUAGAGCUGAGAAGGUGAUCACAUGU [SSNG3/20-A2] (Eterna round: R96, puzzle: Same State NG 3)
[3]; [4]
  apparent KD of MS2 coat protein: 69.1 nM

## GUAGCAUACCGAGGAUAUUCAUAUUACAUGAGGAUCACCCAUGUUAUAGGUCGAUUACGACCUUGGGAGAAGGCGGAAUGCUAC [Xeonanis - 20 Mod32] (Eterna round: R96, puzzle: Same State NG 2)
[3]; [4]
  apparent KD of MS2 coat protein: 23 nM

## CGGGUACAUGAGGAUCACCCAUGUGGGAGAGAUGCAGGAUAUGUGGGAAAAGGGAAUGUAACAGAAGGGCAAGGAG [JR_SS!_Sub015] (puzzle: Same State 1)
[3]; [5]
  apparent KD of MS2 coat protein: 220 nM
[3]; [6]
  apparent KD of MS2 coat protein: 128 nM
[3]; [7]
  apparent KD of MS2 coat protein: 124 nM

## ACGCAGCUAGGUGAGGAUAUCGGUGGUAAAACAUGAGGAUCACCCAUGUCCGAAGCUCGGACUUCCGAGAAGGCGCCCGGCUGCA [Velaberi] (puzzle: Same State 2)
[3]; [5]
  apparent KD of MS2 coat protein: 13.9 nM
[3]; [6]
  apparent KD of MS2 coat protein: 64.2 nM
[3]; [7]
  apparent KD of MS2 coat protein: 96.2 nM

## AACCGGGAGAAGCAGGAUAUUGCCUCUUCAACAUGAGGAUCACCCAUGUAAGUAAAUUGACGAUACAAGAAGGGCUGCUCCUUAC [Raatgees] (Eterna round: R96, puzzle: Same State 2)
[3]; [4]
  apparent KD of MS2 coat protein: 79.1 nM

## AUAAGUUCGAUGCUCGUCUCUCCGUACAAACAUGAGGAUCACCCAUGUGGCCGGGAAGUAGCCCGACCAGUAUGGCC [Tearbeorve] (puzzle: Sensor for hsa-mir-208a)
[3]; [5]
  apparent KD of MS2 coat protein: 38.6 nM
[3]; [6]
  apparent KD of MS2 coat protein: 27.1 nM
[3]; [7]
  apparent KD of MS2 coat protein: 45.2 nM

## UGUUGUAUUACAGGAUAUCUAUGAUUUUUACUUAGAGAAGGGUAUUCACAUGAGGAUCACCCAUGUAUAUACGAGGAAGUUGUG [JMF's solution 67] (Eterna round: R96, puzzle: Same State NG 1)
[3]; input ligand: FMN 200 uM
  apparent KD of MS2 coat protein: 47.2 nM
[3]; [4]
  apparent KD of MS2 coat protein: 35.1 nM
[3]; input ligand: none
  apparent KD of MS2 coat protein: 44.2 nM

## GGAAGGAGGUCAGGAUAUGAAUGGAUGGGACAUGAGGAUCACCCAUGUAAUAGAAGAAAUCUACAUUAGAAGGGACAAGGAAGG [AK SSNG2-V2-5] (Eterna round: R96, puzzle: Same State NG 2)
[3]; input ligand: FMN 200 uM
  apparent KD of MS2 coat protein: 105 nM
[3]; [4]
  apparent KD of MS2 coat protein: 83.2 nM
[3]; input ligand: none
  apparent KD of MS2 coat protein: 130 nM

## UGAGCCGGCACUGAGGAUAUUCAUAUUAAAACAUGAGGAUCACCCAUGUAGGCCAGAAGGCCUUGGGAGAAGGCAGGUCGGCUCA [Mat - Same State 2 - Mod of UCT - D62] (puzzle: Same State 2)
[3]; [6]
  apparent KD of MS2 coat protein: 200 nM

## AGAUCAUGACGAGGAUAUGGUACAUGAGGAUCACCCAUGUAUGUACCACGACGGAAACGUCGAAUCCAGAAGGCGUCAUGAUCA [Mat - Same State NG 2 - JL mod - D24] (Eterna round: R96, puzzle: Same State NG 2)
[3]; input ligand: FMN 200 uM
  apparent KD of MS2 coat protein: 30.5 nM
[3]; [4]
  apparent KD of MS2 coat protein: 109 nM
[3]; input ligand: none
  apparent KD of MS2 coat protein: 130 nM
